Test [1] concerns the target T1, BMP-7 (R&D system cat. #354-BP/CF) (UniProt P18075 293-431).
T1 construct: Bought protein
T1 sequence (looked up): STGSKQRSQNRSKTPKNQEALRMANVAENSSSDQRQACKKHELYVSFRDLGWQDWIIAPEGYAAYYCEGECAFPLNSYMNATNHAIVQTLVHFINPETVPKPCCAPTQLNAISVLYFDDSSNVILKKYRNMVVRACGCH
The test is described as follows: solid phase ELISA, wells coated with 200 ng BMP7. The procedure:
(§1) The indicated amounts of VHHs were incubated with wells coated with ~200 ng BMP6, 200 ng BMP7 or no BMPs (PBS). After several washes, bound VHHs were detected with a rabbit anti-VHH serum and a Donkey anti-rabbit antibody coupled to a peroxidase. The amount of converted OPD (Absorbance at 490 nm; A 490 nm) is proportional to the amount of bound VHHs.
(§2) MaxiSorb plate wells were coated overnight at 4° C., with the antigens in PBS. After blocking of the wells with 4% marvel in PBS, they were incubated with VHH or VHH-fused to M13 phages in the presence of 2% Marvel. The wells were washed with PBS-tween, and bound phages were detected by incubation with a mouse Monoclonal antibody against M13 phage coupled to HRP. Bound VHH were detected by incubation with a rabbit anti-VHH polyclonal serum and a goat anti-rabbit coupled to HRP. The amount of HRP was developed by the addition of OPD. The reactions were stopped by the addition of H_2SO_4 and measured at 490 nm.

The target in test [2] is T2, BMP-6 (R&D systems cat. #507-BP/CF) (human, UniProt P22004 382-513, limits assumed).
T2 construct: Bought protein; also called recombinant human BMP-6
T2 sequence (looked up): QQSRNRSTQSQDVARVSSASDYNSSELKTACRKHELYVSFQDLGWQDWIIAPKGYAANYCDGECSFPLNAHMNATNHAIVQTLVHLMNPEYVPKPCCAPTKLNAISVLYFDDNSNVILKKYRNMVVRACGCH
The test is described as follows: solid phase ELISA, wells coated with 200 ng BMP. The protocol:
as §1, §2

Test [3] deals with T2, BMP-6 (R&D systems cat. #507-BP/CF). Kind of test: solid phase ELISA, wells coated with ~200 ng BMP6. The protocol: as §1, §2
Test [4] has as its target T1, BMP-7 (R&D system cat. #354-BP/CF). The test is described as follows: binding test to cognate antigen, method not described.
The target in test [5] is T2, BMP-6 (R&D systems cat. #507-BP/CF). Kind of test: ELISA, 100 ng BMP6 coated, serial dilutions, read at 490 nm. The source says:
FIG. 7A-7B show the binding properties of the fusion proteins according to the invention which bind to a growth factor or growth factor inhibitor and to a biomaterial. Fusion proteins according to the invention are composed of the VHH according to the invention binding to a growth factor (indicated in the figure as "VHH-6-F2") and a VHH binding to a biomaterial (indicated in the figure as "MA"). […] The fusion proteins (indicated in the figure as "F") were constructed by genetic fusion of a VHH binding to BMP6 and a VHH binding to hydroxyapatite. To achieve binding to the growth factor BMP6 (FIG. 7A), 100 ng of BMP6 was coated into wells of a maxisorb plate. Serial dilutions of the VHH which binds to BMP6 (VHH-6-F2) and fusion proteins according to the invention (F) were added to the wells. Bound VHHs (VHH-6-F2) and fusion proteins (F) were detected with labelled polyclonal antibodies.

Test [6] has the same target. The test is described as follows: SPR, VHH coupled to CM5 chip, BMP injected.
The target of test [7] is T1, BMP-7 (R&D system cat. #354-BP/CF). Kind of test: SPR, VHH coupled to CM5 chip, BMP injected.

Results on eight molecules are retold here after patent US10961303 (UNIVERSITEIT TWENTE, dated 2021).

Residue numbers refer to the chain shown, from its start.

B1: VHH-7-B8 (VHH)
VHH: EVQLVESGGGLVRAGGSLRLSCAASGRTFSGYVAGWFRQAPGKEREFVAAISWSGITYYGDSVKGRFTIARDNSKNGVYLQMNSLKPEDTAVYYCGAGKGYYKDYRGYDYWGQGTQVTVSS
notes: Llama VHH selected against BMP7; not shown: C-terminal Myc and His tags
As to B1, in test [1], the binding result was “binds”.

B2: VHH-7-F11 (VHH)
VHH: B1 VHH with R13Q, I51S, A70S, S74A, G77T
notes: Llama VHH selected against BMP7; In SPR coupled to a CM5 chip by NHS chemistry; not shown: C-terminal Myc and His tags
Turning to B2, the results for the binding result in test [2] and in test [1] were “no binding” and “binds”, respectively.

B3: VHH-6-D6 (VHH)
VHH: EVQLVESGGGLVQAGGSLRLSCAASGRTFSSYGMGWFRQAPGKERDFVAAVSKSGGSTYYTASVKGRFTVSRDNAKNTVYLQMNSLKPEDTAVYYCAAGRWESGSRPGSTWYGERTYDYWGQGTQVTVSS
notes: Llama VHH selected against BMP6, made in E. coli periplasm; not shown: C-terminal Myc and His tags
For B3, the binding result in test [3] is “binds”.

B4: VHH-6-C1 (VHH)
VHH: B3 VHH with K53R, S57N, V70I, V79M, P107L
notes: Llama VHH selected against BMP6; not shown: C-terminal Myc and His tags
For B4, the binding result in test [3] is on record as “binds”.

B5: Glyco-VHH (glycosylated VHH-7-G7 with an N-glycosylation site introduced in loop5, made in yeast) (VHH)
VHH: EVQLVESGGGLVQAGGSLRLSCAASGFTFDDYIIGWFRQAPGKEREGISCISSSDGSTYYADSVTGRFTISSDNANNTVYLQMNSLKPEDTAVYYCAAHAKWPYGTYSFRRCRRASFDSWGQGTQVTVSS
modifications: N-linked glycosyl group at the glycosylation site introduced in loop5 (position not given)
notes: Expressed in S. cerevisiae; also called mutated VHH
With B5, the binding result in test [4] is recorded as “binds”.

B6: VHH-6-F2 (VHH)
VHH: EVQLVESGGGFVQAGGSLRLSCAASGSIFSINAMGWYRQAPGKQRELVAAITSGGSTNYADSVKGRFTISRDNAKNTLYLQMNSLKPEDTAVYYCSAVTILLTSGGWGSGNDYWGQGTQVTVSS
notes: as for B4
For B6, in test [5], the binding result is recorded as “binds”.

B7: VHH-6-H1 (VHH)
VHH: EVQLVESGGGLVQAGGSLRLSCAASGSIFSIVSMGWYRQVPGKQRELVAAITSAGSTNYGDSAKGRFTISRDNAKNTVYLQMNSLKPEDTAVYYCNSYGLGYPGDYGIDYWGKGTLVTVSS
notes: Llama VHH selected against BMP6; In SPR coupled to a CM5 chip by NHS chemistry; also called monohead VHH-6-H1; not shown: C-terminal Myc and His tags
Consider B7, for which the binding result in test [6] and in test [7] was “binds” throughout.

B8: VHH-6-C2 (VHH)
VHH: EVQLVESGGGLVQVGGSLRLSCAASGRTSSMYSMGWFRQAPGKEREFVAAIGWRFGEKYYTNSVKGRFTISRDGAENTNTVYLQMNSLKPDDTAVYYCAADPDDASQYYSDWMKGYGMDYWGKGTLVTVSS
notes: Llama VHH selected against BMP6, cross-reactive with BMP7; not shown: C-terminal Myc and His tags
Take B8: the binding result in test [3] and in test [1] was “binds” in each case.
